Measured values: FireProtDB (doi:10.1002/pro.5560041207)

B1: Thioredoxin, P08058 (parent)
chain: MSTVPVTDATFDTEVRKSDVPVVVDFWAEWCGPCRQIGPALEELSKEYAGKVKIVKVNVDENPESPAMLGVRGIPALFLFKNGQVVSNKVGAAPKAALATWIASAL

Variants of: B1
Details: Cereibacter sphaeroides, pH 7.4, 23 °C, Urea, Fluorescence, whole UniProt chain shown

| Variant | ddG of mutation (higher = less stable) (Potassium phosphate 20 mM) [kcal/mol] | unfolding free energy (Potassium phosphate 20 mM) [kcal/mol] | unfolding free energy (Potassium phosphate 20mM) [kcal/mol] |
| --- | --- | --- | --- |
| MSTVPVTDATFDTEVRKSDVPVVVDVWAEWCGPCRQIGPALEELSKEYAGKVKIVKVNVDENPESPAMLGVRGIPALFLFKNGQVVSNKVGAAPKAALATWIASAL [F26V] | 4.8 | 3.4 | 3.35 |
| MSTVPVTDATFDTEVRKSDVPVVVDLWAEWCGPCRQIGPALEELSKEYAGKVKIVKVNVDENPESPAMLGVRGIPALFLFKNGQVVSNKVGAAPKAALATWIASAL [F26L] | 3.4 | 4.8 | 4.78 |
| MSTVPVTDATFDTEVRKSDVPVVVDIWAEWCGPCRQIGPALEELSKEYAGKVKIVKVNVDENPESPAMLGVRGIPALFLFKNGQVVSNKVGAAPKAALATWIASAL [F26I] |  |  | 4.3 |
| MSTVPVTDATFDTEVRKSDVPVVVDYWAEWCGPCRQIGPALEELSKEYAGKVKIVKVNVDENPESPAMLGVRGIPALFLFKNGQVVSNKVGAAPKAALATWIASAL [F26Y] |  |  | 7.89 |
